This test addresses T1, CD22-Fc (UniProt P20273 20-687, limits assumed).
T1 construct: Soluble staining reagent, detected with an anti-Fc secondary antibody; not shown: Fc part
T1 sequence (looked up): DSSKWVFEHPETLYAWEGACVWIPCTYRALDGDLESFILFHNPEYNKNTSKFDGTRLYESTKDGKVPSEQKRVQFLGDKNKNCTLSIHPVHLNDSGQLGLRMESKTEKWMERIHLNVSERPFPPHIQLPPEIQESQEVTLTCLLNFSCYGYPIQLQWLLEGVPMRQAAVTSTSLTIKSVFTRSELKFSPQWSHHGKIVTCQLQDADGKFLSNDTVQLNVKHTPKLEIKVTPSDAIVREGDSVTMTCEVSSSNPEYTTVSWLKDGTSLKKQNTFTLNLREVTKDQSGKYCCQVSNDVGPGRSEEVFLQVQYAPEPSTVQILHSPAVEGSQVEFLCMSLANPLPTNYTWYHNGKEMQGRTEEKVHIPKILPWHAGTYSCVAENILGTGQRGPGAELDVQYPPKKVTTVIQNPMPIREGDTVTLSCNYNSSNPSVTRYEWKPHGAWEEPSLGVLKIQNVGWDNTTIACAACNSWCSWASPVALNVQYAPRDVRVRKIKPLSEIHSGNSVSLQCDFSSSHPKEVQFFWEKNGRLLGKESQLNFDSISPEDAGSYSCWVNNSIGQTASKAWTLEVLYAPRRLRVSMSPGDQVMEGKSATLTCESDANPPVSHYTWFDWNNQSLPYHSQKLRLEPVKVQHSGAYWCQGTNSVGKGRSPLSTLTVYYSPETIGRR
The experiment in a line: flow cytometry of transduced JNL cells stained with CD22-Fc and anti-Fc secondary antibody. From the text:
The Jurkat NFAT Luciferase (JNL) reporter cell line is based on the acute T cell leukemia line Jurkat. The line was modified to express luciferase under control of the Nuclear Factor of Activated T cells (NFAT) response element. For the transduction with TCARs, 400,000 JNL cells/well of a 12-well plate were transduced with a multiplicity of infection (MOI) of 1.5. Frozen virus-containing supernatant was thawed at room temperature and added to the respective wells. One well each was transduced with CD19-TCAR, CD22-TCAR, or CD19-TCAR plus CD22-TCAR (“CD19/22 dual TCAR”) at MOI=1.5 each. The plates were cultured for 6 days.
TCAR-expressing T cells were tested for their target binding capability by flow cytometry. Non-transduced (UTD), CD19-TCAR, CD22-TCAR and CD19/22 dual TCAR expressing JNL cells were tested: cells were stained with CD22-Fc for 30 min at 4° C. After a wash, cells were stained with anti-Fc secondary antibody for 30 min at 4° C. After a second wash, cells were stained with CD19-CAR anti-idiotype antibody (Ab) for 30 min at 4° C. Cells were then analyzed on a FACS LSR Fortessa after a last wash. Data was analyzed using FlowJo software. […] CD22-TCAR expressing cells bound CD22-Fc but were not stained with the CD19-CAR anti-idiotype Ab (FIG. 47C).
In general terms: Flow cytometry measures light scatter and fluorescence of single cells or particles in a stream.

B1: CD19scFv-G4S-CD3gECDTM-41BB (other)
chain: EIVMTQSPATLSLSPGERATLSCRASQDISKYLNWYQQKPGQAPRLLIYHTSRLHSGIPARFSGSGSGTDYTLTISSLQPEDFAVYFCQQGNTLPYTFGQGTKLEIKGGGGSGGGGSGGGGSQVQLQESGPGLVKPSETLSLTCTVSGVSLPDYGVSWIRQPPGKGLEWIGVIWGSETTYYSSSLKSRVTISKDNSKNQVSLKLSSVTAADTAVYYCAKHYYYGGSYAMDYWGQGTLVTVSSGGGGSQSIKGNHLVKVYDYQEDGSVLLTCDAEAKNITWFKDGKMIGFLTEDKKKWNLGSNAKDPRGMYQCKGSQNKSKPLQVYYRMCQNCIELNAATISGFLFAEIVSIFVLAVGVYFIAKRGRKKLLYIFKQPFMRPVQTTQEEDGCSCRFPEEEEGGCEL
notes: Chimeric membrane protein: CD19 scFv, G4S linker, CD3 gamma extracellular and transmembrane domains, 4-1BB; Expressed on JNL (Jurkat NFAT luciferase) cells by lentiviral transduction, alone or together with the CD22 TCAR (CD19/22 dual TCAR cells); also called CD19-TCAR; CD19 TCAR
With B1, the binding result is “no binding”.

Values taken from patent publication US20190375815A1 (Novartis, published 2019).
